Measured values published in patent US20220002363A1, “COMPOSITIONS AND METHODS FOR TREATING PULMONARY DISEASE” (United States Government As Represented By The Department …, priority 2020, published 2022).

Assays:
WT-sFasL = biological target: T1, WT-sFasL (Homo sapiens, UniProt P48023); assay: Attenuation of WT-sFasL-induced caspase 3/7 activity in Jurkat cells by molar mixtures of WT and mut-sFasL; format: cell-based; conditions: serial dilutions of mut sFasL
T1 construct: made in house
T1 sequence (P48023 103-281): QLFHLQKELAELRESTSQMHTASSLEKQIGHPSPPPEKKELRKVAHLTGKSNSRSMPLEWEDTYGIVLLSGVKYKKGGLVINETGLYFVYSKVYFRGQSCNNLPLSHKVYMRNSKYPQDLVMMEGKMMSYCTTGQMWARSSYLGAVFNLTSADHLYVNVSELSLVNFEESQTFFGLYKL
Method: FIGS. 2A-D show the mut-sFasL has inhibitory properties. Highly Fas-sensitive Jurkat cells (FIG. 2A), primary human lung small airway epithelial cells (SAEC, FIG. 2B) or murine lung epithelial cells (LA4, FIG. 2D) were incubated with serial dilutions of mutated FasL, (mut sFasL). […] As a confirmatory test, the experiment was repeated using SAEC and an annexin-V translocation assay (FIG. 2C). WT=wild type (no mutant). […] Each dot represents individual data; lines represent means±SD. *=P<0.05; **=P<0.01, ***P<0.001 when compared to WT. One way ANOVA with SIdak's post hoc analysis.
Methods. Cells and cell culture. To test Fas responses in vitro, the highly-Fas sensitive cell line, Jurak, was used. […]
Measurements of apoptotic cascade activation. Apoptotic cascade activation was assessed by determining caspase 3/7 activity and Annexin V externalization. Caspase-3/7 activity was measured using a commercial substrate (Caspase-Glo 3/7 Assay, Promega, Madison, Wis., Cat #G8090) following manufacturer's instructions. Annexin V was measured with a luminescent commercial assay that allows for measurement of annexin V externalization in adherent cells (RealTime-Glo Annexin V assay, Promega, Madison, Wis., Cat #JA1011). Luminescence was measured with a Synergy H4 Microplate Reader (BioTek, Winooski, Vt.). […]

recombinant human Fas = biological target: T2, recombinant human Fas (Homo sapiens, UniProt P25445); assay: Competition assay: binding of biotinylated WT sFasL to plate-coated recombinant human Fas; conditions: biotinylated WT-sFasL 70 ng/mL, Fas coated at 250 ng/mL, serial 3-fold dilutions
T2 construct: recombinant human soluble Fas receptors (PeproTech, Rocky Hill, N.J.); purchased PeproTech
T2 sequence (P25445 26-173 limits assumed): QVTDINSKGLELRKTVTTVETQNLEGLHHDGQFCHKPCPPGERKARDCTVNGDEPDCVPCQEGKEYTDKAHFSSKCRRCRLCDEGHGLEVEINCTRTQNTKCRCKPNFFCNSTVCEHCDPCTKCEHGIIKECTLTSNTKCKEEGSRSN
Method: The mixtures were incubated for 2 hours in 96-well plates pre-coated with recombinant hsFas (250 ng/ml). After washing unbound material, biotin was detected using HRP conjugated Streptavidin. […] The sFasL bound to Fas was detected using polyclonal anti-human FasL antibodies. […] Different molar ratios of the Fas-activating antibody CH-11 and mut-sFasL were added, and caspase 3/7 activity measured after 5 hours. […] Data represent the results from three separate experiments, each done in duplicate, and were analyzed by 2-way ANOVA with Sidak's post hoc analysis. […] Each dot represents individual data; lines represent means±SD. *=P<0.05; **=P<0.01, ***P<0.001.
Antibodies and Reagents. […] FLAG tagged mut-sFasL was detected using HRP anti-FLAG monoclonal antibody (Sigma-Aldrich, Cat #A85920). […]
WT-sFasL inhibition occurs prior to receptor binding. […] Recombinant human Fas at 250 ng/mL were coated and the binding of a fixed concentration of biotinylated WT-sFasL (70 ng/mL) were measured in the presence of serial 3-fold dilutions of either WT-sFasL or mut-sFasL. […] Serial dilutions of either WT-sFasL or mut-sFasL were incubated in wells coated with recombinant human Fas, 5 μg/mL, and after washing, detected sFasL bound to Fas using polyclonal anti-FasL antibodies. […]

B1: mut-sFasL: mutant sFasL molecule in which 8 charged amino acids in the 26 amino acid stalk region were changed to alanine (protein)
chain: QLFALQAALAALAASTSQMATASSLAKQIGHPSPPPEKKELRKVAHLTGKSNSRSMPLEWEDTYGIVLLSGVKYKKGGLVINETGLYFVYSKVYFRGQSCNNLPLSHKVYMRNSKYPQDLVMMEGKMMSYCTTGQMWARSSYLGAVFNLTSADHLYVNVSELSLVNFEESQTFFGLYKL
- inhibition of wild type sFasL activity (caspase 3/7) (WT-sFasL): dose-dependent inhibition of wild type sFasL activity
- effect of increasing competitor concentration on binding of biotinylated WT-sFasL to Fas (recombinant human Fas): little effect on binding of biotinylated WT-sFasL, except at very high doses
